# In paper doi:10.1101/2025.04.24.648904 (bioRxiv, 2025):
# Biological target: Hsp90 (Hsp82), full length (S. cerevisiae, UniProt P02829 1-709)
# Assay: AUC
# Hsp90 (Hsp82), full length, sequence (P02829 whole entry): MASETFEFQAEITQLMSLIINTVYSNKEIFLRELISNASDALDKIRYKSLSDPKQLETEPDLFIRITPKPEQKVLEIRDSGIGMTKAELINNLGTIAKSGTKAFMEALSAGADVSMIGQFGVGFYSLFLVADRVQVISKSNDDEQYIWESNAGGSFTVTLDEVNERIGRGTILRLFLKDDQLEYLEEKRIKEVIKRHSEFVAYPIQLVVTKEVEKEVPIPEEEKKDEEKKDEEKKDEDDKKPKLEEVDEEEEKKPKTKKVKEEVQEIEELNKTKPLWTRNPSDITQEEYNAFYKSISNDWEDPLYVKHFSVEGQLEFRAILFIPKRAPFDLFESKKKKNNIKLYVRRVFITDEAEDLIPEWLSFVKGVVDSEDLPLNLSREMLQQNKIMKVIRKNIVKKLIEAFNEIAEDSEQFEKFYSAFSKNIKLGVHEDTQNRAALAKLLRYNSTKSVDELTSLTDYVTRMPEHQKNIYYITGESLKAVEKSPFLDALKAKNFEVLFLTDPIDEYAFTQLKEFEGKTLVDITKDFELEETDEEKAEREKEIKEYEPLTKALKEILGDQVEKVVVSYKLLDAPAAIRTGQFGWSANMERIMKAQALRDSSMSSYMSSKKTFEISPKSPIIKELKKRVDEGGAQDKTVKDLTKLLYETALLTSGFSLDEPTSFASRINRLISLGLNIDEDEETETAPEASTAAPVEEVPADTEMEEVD
binder,measurement,value
"Sgt1 (Suppressor of the G2 Allele of Skp1), full length (natural protein, S. cerevisiae, UniProt Q08446 1-395, looked up, Atto488 (maleimide) label where it is the labeled species in aUC) MPVEKDLKTAYKALYDEKEPLKALHLYDEILKGSPTNLTALIFKAACLEKLYFGFSDWHSDATMENAKELLDKALMTAEGRGDRSKIGLVNFRYFVHFFNIKDYELAQSYFKKAKNLGYVDDTLPLWEDRLETKLNKKNKKQKDSTNKHTIKPVESIENRGDNNSSHSPISPLKIETAPQESPKFKIDWYQSSTSVTISLFTVNLPESKEQVNIYISPNDRRTLSISYQVPKSGSEFQYNAKLSHEVDPKAVSLKIFPKKLEITLSKIDSTQWKKLEEDILTESSRLSDEGKNSDSATRLLSAETASKERLSYPSSSKKKIDWSKLDIDEEADEEAGSADSFFQKLYAGADPDTKRAMMKSFIESNGTALSTDWEDVSKGTVKTSPPEGMEPKHW",Kd,510 nM
